Our source for the fold increase of the luminescent signal with co-transfected native D2LR (4:4:6) against none and fold increase of the luminescent signal with co-transfected native D2LR (4:4:6) against none, cells treated with 10 µM spiperone values is PMC6480712.

The assay concerns the target T1, human dopamine D2 long receptor (D2LR) fused C-terminally to LgBiT or SmBiT of NanoLuciferase (human), P14416.
T1 chain: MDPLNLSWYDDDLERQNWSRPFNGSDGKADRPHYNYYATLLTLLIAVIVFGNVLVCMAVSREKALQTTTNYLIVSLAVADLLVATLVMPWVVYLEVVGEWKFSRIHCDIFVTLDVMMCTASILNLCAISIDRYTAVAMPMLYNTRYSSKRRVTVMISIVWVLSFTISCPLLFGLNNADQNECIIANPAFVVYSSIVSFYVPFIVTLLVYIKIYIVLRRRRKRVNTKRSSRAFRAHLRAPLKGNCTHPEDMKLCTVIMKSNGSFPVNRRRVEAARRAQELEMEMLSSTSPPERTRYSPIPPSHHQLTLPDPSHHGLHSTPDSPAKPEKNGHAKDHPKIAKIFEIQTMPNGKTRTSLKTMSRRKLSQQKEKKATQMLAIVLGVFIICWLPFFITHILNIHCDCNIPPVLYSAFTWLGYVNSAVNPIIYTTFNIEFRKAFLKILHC
The assay can be described thus: split reporter (BiFC, NanoBiT); NanoBiT in HEK293T cells co-transfected with 400 ng D2LR–SmBiT, D2LR–LgBiT and increasing native (untagged) D2LR DNA (0–600 ng), without or with 10 µM spiperone; muscarinic M1 receptor co-transfected instead as control. As to conditions: remark: other sources report otherwise.

B1: human dopamine D2 long receptor (D2LR) fused C-terminally to LgBiT or SmBiT of NanoLuciferase, P14416-1 1-443 (receptor)
chain: MDPLNLSWYDDDLERQNWSRPFNGSDGKADRPHYNYYATLLTLLIAVIVFGNVLVCMAVSREKALQTTTNYLIVSLAVADLLVATLVMPWVVYLEVVGEWKFSRIHCDIFVTLDVMMCTASILNLCAISIDRYTAVAMPMLYNTRYSSKRRVTVMISIVWVLSFTISCPLLFGLNNADQNECIIANPAFVVYSSIVSFYVPFIVTLLVYIKIYIVLRRRRKRVNTKRSSRAFRAHLRAPLKGNCTHPEDMKLCTVIMKSNGSFPVNRRRVEAARRAQELEMEMLSSTSPPERTRYSPIPPSHHQLTLPDPSHHGLHSTPDSPAKPEKNGHAKDHPKIAKIFEIQTMPNGKTRTSLKTMSRRKLSQQKEKKATQMLAIVLGVFIICWLPFFITHILNIHCDCNIPPVLYSAFTWLGYVNSAVNPIIYTTFNIEFRKAFLKILHC
As for B1, the fold increase of the luminescent signal with co-transfected native D2LR (4:4:6) against none turned out to be 20 fold and the fold increase of the luminescent signal with co-transfected native D2LR (4:4:6) against none, cells treated with 10 µM spiperone stood at 5 fold.
